Data as given in US20250277048A1 (Regeneron, published 2025).

T1: monkey CD40 extracellular domain expressed with a C-terminal myc-myc-hexahistidine tag (monkey)
T1 construct: also called mfCD40-MMH; REGN3097
T1 chain: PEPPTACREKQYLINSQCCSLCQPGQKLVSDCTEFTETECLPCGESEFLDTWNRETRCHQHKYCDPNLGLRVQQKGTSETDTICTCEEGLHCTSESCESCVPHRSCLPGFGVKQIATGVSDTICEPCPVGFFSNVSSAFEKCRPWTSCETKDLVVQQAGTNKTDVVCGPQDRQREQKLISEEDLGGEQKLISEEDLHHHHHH

T2: mouse CD40 extracellular domain expressed with a C-terminal myc-myc-hexahistidine tag (mouse)
T2 construct: also called mCD40-MMH; REGN3098
T2 chain: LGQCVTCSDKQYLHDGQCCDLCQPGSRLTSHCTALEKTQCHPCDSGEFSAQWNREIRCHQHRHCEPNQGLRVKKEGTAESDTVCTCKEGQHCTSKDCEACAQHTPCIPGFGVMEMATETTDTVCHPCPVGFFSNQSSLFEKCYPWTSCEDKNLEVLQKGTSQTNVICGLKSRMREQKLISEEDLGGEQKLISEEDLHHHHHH


Legend:
[1] = target: T1, monkey CD40 extracellular domain …; test: SPR Biacore 4000, mAb captured, 25C
Description: (§1) The equilibrium dissociation constants (KD) for anti-CD40 bivalent and bispecific monoclonal antibodies (mAbs) were determined using a real-time surface plasmon resonance (SPR)-based Biacore 4000 biosensor. All binding studies were performed in 10 mM HEPES, 150 mM NaCl, 3 mM EDTA, and 0.05% v/v surfactant Tween-20, pH 7.4 (HBS-ET) running buffer at 25° C. and 37° C. The Biacore CM5 sensor surface was first derivatized by amine coupling with a monoclonal mouse anti-human Fc antibody (REGN2567) to capture anti-CD40 bivalent parental and anti-CD40×CD40 bispecific antibodies. Different concentrations of CD40 reagents, human CD40 extracellular domain expressed with a C-terminal myc-myc-hexahistidine tag (SEQ ID NO: 1114) (“hCD40-MMH”; REGN3094; SEQ ID NO: 53), monkey CD40 extracellular domain expressed with a C-terminal myc-myc-hexahistidine tag (SEQ ID NO: 1114) (“mfCD40-MMH”; REGN3097; SEQ ID NO: 54), and mouse CD40 extracellular domain expressed with a C-terminal myc-myc-hexahistidine tag (SEQ ID NO: 1114) (“mCD40-MMH”; REGN3098; SEQ ID NO: 55), at concentrations ranging from 3.7 nM to 100 nM or 3.3 nM to 90 nM in a series of 3-fold dilutions prepared in HBS-ET running buffer were injected at a flow rate of 30 μL/min for 4 minutes or 50 μL/min for 5 minutes. The dissociation of different CD40 reagents bound to anti-CD40 bivalent parental and anti-CD40×CD40 bispecific antibodies was monitored for 10 minutes in HBS-ET running buffer. At the end of each cycle, the anti-CD40 bivalent parental and anti-CD40×CD40 bispecific antibodies capture surface was regenerated using a 12 sec injection of 20 mM H₃PO₄.
(§2) The association rate (ka) and dissociation rate (kd) were determined by fitting the real-time binding sensorgrams to a 1:1 binding model with mass transport limitation using Scrubber 2.0c curve-fitting software. Binding dissociation equilibrium constant (KD) and dissociative half-life (t_{1/2}) were calculated from the kinetic rates as: KD(M)=kd/kₐ, and t_{1/2} (min)=[ln(2)/(60*kd)].

[2] = target: T2, mouse CD40 extracellular domain …; test: SPR Biacore 4000, mAb captured, 25C
Description: as §1, §2

[3] = target: T3, human CD40 extracellular domain expressed with a C-terminal myc-myc-hexahistidine tag (human); test: SPR Biacore 4000, mAb captured, 25C
T3 construct: also called hCD40-MMH; hCD40-mmH
Description: as §1, §2

[4] = target: T4, human CD40 (hCD40) expressed on cells (human, UniProt P25942 21-277); test: flow cytometry, HEK293/D9/hCD40 cells
T4 construct: whole, on cells; one entry for transfected and endogenous human CD40; the cell line is named under assay or readout; also called HEK293/D9/hCD40; Ramos 2G6.4C10
Description: Cells were washed with 2% FBS (w/v) in 1×PBS (flow cytometry staining buffer) by centrifugation with benchtop Centrifuge 5810R (Eppendorf®, Hamburg, Germany). Cells were incubated for 30 minutes at 4° C. with serial dilutions of following antibodies ranging from 1.7 pM to 100 nM in flow cytometry staining buffer (1) anti-CD40×CD40 bispecific antibodies, or (2) parental anti-CD40 antibodies (bivalent antibodies comprising 2 fragment antigen-binding [Fab] arms identical to one of the two anti-CD40 Fab of bispecific anti-CD40×CD40 antibodies), or (3) anti-CD40×Irrelevant antibodies (bivalent antibodies that incorporate one Fab arm identical to one of anti-CD40 Fab of anti-CD40×CD40 antibodies and another Fab arm specific to an irrelevant antigen, i.e. birch pollen main allergen Bet v1), or (4) human IgG4 isotype control antibodies with Fc mutation. After washing, cell bound antibodies were detected with 2.5 μg/ml Allophycocyanin (APC)-conjugated goat anti-human IgG antibody specific for the Fcγ fragment (Jackson Immunoresearch, West Grove, PA) for 30 minutes at 4° C. Cells were washed and subsequently fixed with 50% solution of Cytofix™ Fixation Buffer (BD, Franklin Lakes, NJ) in flow cytometry staining buffer for 20 minutes at room temperature. Cells were washed and resuspended in flow cytometry staining buffer and stored at 4° C. for downstream flow cytometry analysis.
Acquisition of fluorescence signals were recorded on the ZE5 Cell Analyzer (Bio-Rad, Hercules, CA) according to the manufacturer's recommended procedure and flow cytometry data analysis was performed using the open-source R packages flowCore, flowStats, flowDensity, ggCyto, and flowAI. Multiplexed samples were deconvoluted and individual cell populations were identified based on their unique CellTrace™ fluorescence signature. APC Median Fluorescence intensity (MFI) was recorded to indicate the binding intensity of each antibody over a range of concentrations. Antibodies with MFI greater than 1500 at the highest tested concentration (100 nM) were classified as specific binders. In addition, direct binding signals (APC MFI) were analyzed as a function of the antibody concentration and data were fitted with a sigmoidal (four-parameter logistic) dose-response model using GraphPad Prism™ software.

[5] = target: T4, human CD40 (hCD40) expressed on cells; test: cell-based or functional assay

T4 sequence (P25942 21-277): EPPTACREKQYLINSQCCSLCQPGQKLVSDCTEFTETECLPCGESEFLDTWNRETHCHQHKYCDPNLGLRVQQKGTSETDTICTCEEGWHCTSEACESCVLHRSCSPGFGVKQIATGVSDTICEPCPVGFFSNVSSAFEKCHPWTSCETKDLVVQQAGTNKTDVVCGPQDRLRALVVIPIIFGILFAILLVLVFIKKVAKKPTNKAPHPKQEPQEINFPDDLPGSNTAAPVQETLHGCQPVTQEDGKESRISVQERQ

| Binder | 100 nM Ag Bound [1] | Kd [1] | koff [1] | kon [1] | t1/2 [1] | 100 nM Ag Bound [2] | binding result [2] | 100 nM Ag Bound [3] | Kd [3] | koff [3] | t1/2 [3] | EC50 [4] | MFI at 100 nM [4] | IC50, 10 nM hCD40L, THP-1 NFkB-luc [5] | Max % activation, no ligand, THP-1 NFkB-luc [5] | Max % inhibition, 10 nM hCD40L, THP-1 NFkB-luc [5] | kon [3] | EC50 (potentiation), 10 nM hCD40L, THP-1 NFkB-luc [5] |
| --- | --- | --- | --- | --- | --- | --- | --- | --- | --- | --- | --- | --- | --- | --- | --- | --- | --- | --- |
| 21519P2 (antibody, human IgG4 S228P, kappa, V domains shown, parental bivalent anti-CD40 mAb; common light chain; also called H4sH21519P2) VH: QLQLQESGPGLVRPSETLSLTCSVSGASMNTNNYYWGWIRQPPGKGLEWIGSGYYNGNTYYNPSLKSRVTISVDTSKNQFSLKLNSVTAADTAVYYCARQTPPRIIGSPNIWGQGTMVTVSS VL: not shown | 10.3 RU | 205 nM | 0.181 s⁻¹ | 886000 M⁻¹ s⁻¹ | 0.1 min | 0.4 RU | no binding (tested: 100 nM) | 99 RU | 8.82 nM | 0.00339 s⁻¹ | 3.4 min | 1.3 nM | 20200 MFI | 0.276 nM | 5% | 99% |  |  |
| REGN16432 (bispecific antibody, human IgG4 S228P, kappa, D1 arm from 30027P2, D2 arm from 21520P2, common light chain; also called CD40xCD40 (30027 x 21520)) heavy 1: EVQLVESGGGLVQPGGSLRLSCAASGFTFSSYAMNWVRQAPGKGLEWVSIISGTIGKTYYADSVKGRFTISRDNSKNTLYLQMNSLRGEDTAVYYCAKDTERDITGSPFDYWGQGTLVTVSSASTKGPSVFPLAPCSRSTSESTAALGCLVKDYFPEPVTVSWNSGALTSGVHTFPAVLQSSGLYSLSSVVTVPSSSLGTKTYTCNVDHKPSNTKVDKRVESKYGPPCPPCPAPPVAGPSVFLFPPKPKDTLMISRTPEVTCVVVDVSQEDPEVQFNWYVDGVEVHNAKTKPREEQFNSTYRVVSVLTVLHQDWLNGKEYKCKVSNKGLPSSIEKTISKAKGQPREPQVYTLPPSQEEMTKNQVSLTCLVKGFYPSDIAVEWESNGQPENNYKTTPPVLDSDGSFFLYSRLTVDKSRWQEGNVFSCSVMHEALHNHYTQKSLSLSLGK heavy 2: EVQLVESGGGLVQPGGSLRLSCAASGFTFGSYGMAWVRQAPGKGLEWVSAISGSGDYTNYADSVKRRFTISRDNSKNTLYLQMSSLRAEDTAVYYCAKEKTGTTGYLYSGMDVWGQGTTVTVSSASTKGPSVFPLAPCSRSTSESTAALGCLVKDYFPEPVTVSWNSGALTSGVHTFPAVLQSSGLYSLSSVVTVPSSSLGTKTYTCNVDHKPSNTKVDKRVESKYGPPCPPCPAPPVAGPSVFLFPPKPKDTLMISRTPEVTCVVVDVSQEDPEVQFNWYVDGVEVHNAKTKPREEQFNSTYRVVSVLTVLHQDWLNGKEYKCKVSNKGLPSSIEKTISKAKGQPREPQVYTLPPSQEEMTKNQVSLTCLVKGFYPSDIAVEWESNGQPENNYKTTPPVLDSDGSFFLYSRLTVDKSRWQEGNVFSCSVMHEALHNRFTQKSLSLSPGK light: not shown |  |  |  |  |  |  |  | 56.6 RU | 0.163 nM | 0.000125 s⁻¹ | 92.3 min | 1.5 nM | 30300 MFI | 0.148 nM | 6% | 97% | 769000 M⁻¹ s⁻¹ |  |
| 30027P2 (antibody, human IgG4 S228P, kappa, V domains shown, parental bivalent anti-CD40 mAb; common light chain; also called H4sH30027P2) VH: EVQLVESGGGLVQPGGSLRLSCAASGFTFSSYAMNWVRQAPGKGLEWVSIISGTIGKTYYADSVKGRFTISRDNSKNTLYLQMNSLRGEDTAVYYCAKDTERDITGSPFDYWGQGTLVTVSS VL: not shown | 63.1 RU | 0.901 nM | 0.00102 s⁻¹ | 1.14e+06 M⁻¹ s⁻¹ | 11.3 min | 0.2 RU | no binding (tested: 100 nM) | 62 RU | 1.83 nM | 0.000998 s⁻¹ | 11.6 min | 0.72 nM | 20900 MFI |  | 2% | -61% | 546000 M⁻¹ s⁻¹ | 0.00251 nM |

Now from value to binder:

| 100 nM Ag Bound [1] | Kd [1] | koff [1] | kon [1] | t1/2 [1] | 100 nM Ag Bound [2] | binding result [2] | 100 nM Ag Bound [3] | Kd [3] | koff [3] | t1/2 [3] | EC50 [4] | MFI at 100 nM [4] | IC50, 10 nM hCD40L, THP-1 NFkB-luc [5] | Max % activation, no ligand, THP-1 NFkB-luc [5] | Max % inhibition, 10 nM hCD40L, THP-1 NFkB-luc [5] | kon [3] | EC50 (potentiation), 10 nM hCD40L, THP-1 NFkB-luc [5] | Binder |
| --- | --- | --- | --- | --- | --- | --- | --- | --- | --- | --- | --- | --- | --- | --- | --- | --- | --- | --- |
|  |  |  |  |  |  |  | 61.2 RU | 0.101 nM | 0.000149 s⁻¹ | 77.5 min | 1.9 nM | 29500 MFI | 0.287 nM | 2% | 98% | 1.47e+06 M⁻¹ s⁻¹ |  | REGN16431 (bispecific antibody, human IgG4 S228P, kappa, D1 arm from 21519P2, D2 arm from 21520P2, common light chain; also called CD40xCD40 (21519 x 21520)) heavy 1: QLQLQESGPGLVRPSETLSLTCSVSGASMNTNNYYWGWIRQPPGKGLEWIGSGYYNGNTYYNPSLKSRVTISVDTSKNQFSLKLNSVTAADTAVYYCARQTPPRIIGSPNIWGQGTMVTVSSASTKGPSVFPLAPCSRSTSESTAALGCLVKDYFPEPVTVSWNSGALTSGVHTFPAVLQSSGLYSLSSVVTVPSSSLGTKTYTCNVDHKPSNTKVDKRVESKYGPPCPPCPAPPVAGPSVFLFPPKPKDTLMISRTPEVTCVVVDVSQEDPEVQFNWYVDGVEVHNAKTKPREEQFNSTYRVVSVLTVLHQDWLNGKEYKCKVSNKGLPSSIEKTISKAKGQPREPQVYTLPPSQEEMTKNQVSLTCLVKGFYPSDIAVEWESNGQPENNYKTTPPVLDSDGSFFLYSRLTVDKSRWQEGNVFSCSVMHEALHNHYTQKSLSLSLGK heavy 2: EVQLVESGGGLVQPGGSLRLSCAASGFTFGSYGMAWVRQAPGKGLEWVSAISGSGDYTNYADSVKRRFTISRDNSKNTLYLQMSSLRAEDTAVYYCAKEKTGTTGYLYSGMDVWGQGTTVTVSSASTKGPSVFPLAPCSRSTSESTAALGCLVKDYFPEPVTVSWNSGALTSGVHTFPAVLQSSGLYSLSSVVTVPSSSLGTKTYTCNVDHKPSNTKVDKRVESKYGPPCPPCPAPPVAGPSVFLFPPKPKDTLMISRTPEVTCVVVDVSQEDPEVQFNWYVDGVEVHNAKTKPREEQFNSTYRVVSVLTVLHQDWLNGKEYKCKVSNKGLPSSIEKTISKAKGQPREPQVYTLPPSQEEMTKNQVSLTCLVKGFYPSDIAVEWESNGQPENNYKTTPPVLDSDGSFFLYSRLTVDKSRWQEGNVFSCSVMHEALHNRFTQKSLSLSPGK light: not shown |
| 10.1 RU | 67.7 nM | 0.203 s⁻¹ | 3e+06 M⁻¹ s⁻¹ | 0.1 min | -0.5 RU |  | 76.6 RU | 25.1 nM | 0.0223 s⁻¹ | 0.5 min | 0.82 nM | 20700 MFI | 0.437 nM | 1% | 97% | 885000 M⁻¹ s⁻¹ |  | 21520P2 (antibody, human IgG4 S228P, kappa, V domains shown, parental bivalent anti-CD40 mAb; common light chain; also called H4sH21520P2) VH: EVQLVESGGGLVQPGGSLRLSCAASGFTFGSYGMAWVRQAPGKGLEWVSAISGSGDYTNYADSVKRRFTISRDNSKNTLYLQMSSLRAEDTAVYYCAKEKTGTTGYLYSGMDVWGQGTTVTVSS VL: not shown |
